For 20 variants, self-cleavage results are on record in the RNAGym collection of RNA variant scans (doi:10.7554/elife.90254).

B1: LINE1-full (parent)
chain: UACGUAGGUGGUUUUCCCCUGAUAGUGCUAAGGGGGCCUGGAAGUUUGGACUGGGCAGAGCUCAACACAGCGUGGCAAAGUGGCUGUGGCUAGACUGCCUCUCUGGAUUCCUCGUCACUCAGCAGGGCAUCUCUGAGAGAAAUGCC

Variants of B1 are the subject of this data set. The data set is described as follows: self-cleavage, relative activity (ratio to wild type); higher = more cleavage; in vitro, sequencing; the parent is a self-cleaving ribozyme.
With UACGUAGGUGGUUUUCCCCUGAUAGUGCUAAGGGGGCCUGGAAGUUUGGACUGGGUAGAGCUCAACACAGCGUGGCAAAGUGGCUGUGGCUAGACUGCCUCUCUGGAUUCCUCGUCACUCAGCAGGGCAUCUCUGAGAGAAGUGCC [C56U A142G], the self-cleavage was found to be 0.11.

Take UACGUAGGUGGUUUUCCCCUGAUAGUGCUAAGGGGGCCUGGAAGUUUGGACUGGGUAGAGCUCAACACAGCGUGGCAAAGUGGCCGUGGCUAGACUGCCUCUCUGGAUUCCUCGUCACUCAGCAGGGCAUCUCUGAGAGAAAUGCC [C56U U85C]: the self-cleavage is 0.07.

Take UACGUAGGUGGUUUUCCCCUGAUAGUGCUAAGGGGGCCUGGAAGUUUGGACUGGGUAGAGCUCAACACAGCGUGGCAAAGUGGCGGUGGCUAGACUGCCUCUCUGGAUUCCUCGUCACUCAGCAGGGCAUCUCUGAGAGAAAUGCC [C56U U85G]: the self-cleavage came to 0.03.

Regarding UACGUAGGUGGUUUUCCCCUGAUAGUGCUAAGGGGGCCUGGAAGUUUGGACUGGGUAGAGCUCAACACAGCGUGGCAAAGUGGCUGUGGCUAGACUGCCUCUCUGGAUUCCUCGUCACUCAGCAGGGCUUCUCUGAGAGAAAUGCC [C56U A129U], the self-cleavage was 0.23.

Regarding UACGUAGGUGGUUUUCCCCUGAUAGUGCUAAGGGGGCCUGGAAGUUUGGACUGGGUAGAGCUCAACACAGCGUGGCAAAGUGGCUGUGGCUAGACUGCCUCUCUGGAUUCCUCGUCACUCAGCAGGGUAUCUCUGAGAGAAAUGCC [C56U C128U], the self-cleavage is 0.22.

As to UACGUAGGUGGUUUUCCCCUGAUAGUGCUAAGGGGGCCUGGAAGUUUGGACUGGGUAGAGCUCAACACAGCGUGGCAAAGUGGCUGUGGCUAGACUGCCUCUCUGGAUUCCUCGUCACUCAGCAGGGCAUCUCCGAGAGAAAUGCC [C56U U134C], the self-cleavage was 0.23.

With UACGUAGGUGGUUUUCCCCUGAUAGUGCUAAGGGGGCCUGGAAGUUUGGACUGGGUAGAGCUCAACACAGCGUGGCAAAGUGGCUGUGGCUAGACUGCCUCUCUGGAUUCCUCGUCACCCAGCAGGGCAUCUCUGAGAGAAAUGCC [C56U U119C], the self-cleavage was 0.21.

For UACGUAGGUGGUUUUCCCCUGAUAGUGCUAAGGGGGCCUGGAAGUUUGGACUGGGUAGAGCUCAACACAGCGUGGCAAAGUGGCUGUGGCUAGACUGCCUCUCUGGAUUCCUCGUCACUCAGCAGGGCACCUCUGAGAGAAAUGCC [C56U U130C], the self-cleavage was determined as 0.

Take UACGUAGGUGGUUUUCCCCUGAUAGUGCUAAGGGGGCCUGGAAGUUUGGACUGGGCCGAGCUCAACACAGCGUGGCAGAGUGGCUGUGGCUAGACUGCCUCUCUGGAUUCCUCGUCACUCAGCAGGGCAUCUCUGAGAGAAAUGCC [A57C A78G]: the self-cleavage is 0.

For UACGUAGGUGGUUUUCCCCUGAUAGUGCUAAGGGGGCCUGGAAGUUUGGACUGGGUAGAGCUCAACACAGCGUGGCAAAGUGGCUGUGGCUAGACUGCCUCUCUGGAUUCCUCGUCACUCAGCAGGGCAUCCCUGAGAGAAAUGCC [C56U U132C], the self-cleavage stood at 0.2.

Turning to UACGUAGGUGGUUUUCCCCUGAUAGUGCUAAGGGGGCCUGGAAGUUUGGACUGGGUAGAGCUCAACACAGCGUGGCAAAGUGGCUGUGGCUAGACUGCCUCUCUGGAUCCCUCGUCACUCAGCAGGGCAUCUCUGAGAGAAAUGCC [C56U U109C], the self-cleavage was determined as 0.03.

For UACGUAGGUGGUUUUCCCCUGAUAGUGCUAAGGGGGCCUGGAAGUUUGGACUGGGUAGAGCUCAACACAGCGUGGUAAAGUGGCUGUGGCUAGACUGCCUCUCUGGAUUCCUCGUCACUCAGCAGGGCAUCUCUGAGAGAAAUGCC [C56U C76U], the self-cleavage is 0.34.

For the variant UACGUAGGUGGUUUUCCCCUGAUAGUGCUAAGGGGGCCUGGAAGUUUGGACUGGGCCGAGCUCAGCACAGCGUGGCAAAGUGGCUGUGGCUAGACUGCCUCUCUGGAUUCCUCGUCACUCAGCAGGGCAUCUCUGAGAGAAAUGCC [A57C A65G], the self-cleavage was found to be 0.

On to UACGUAGGUGGUUUUCCCCUGAUAGUGCUAAGGGGGCCUGGAAGUUUGGACUGGGCCGAGCUCAACACAGCGUGGCAAAGUGGCUGUGGCUAGACUGCCUCUCUGGUUUCCUCGUCACUCAGCAGGGCAUCUCUGAGAGAAAUGCC [A57C A107U], for which the self-cleavage is 0.07.

Regarding UACGUAGGUGGUUUUCCCCUGAUAGUGCUAAGGGGGCCUGGAAGUUUGGACUGGGUAGAGCUCAACACAGCGUAGCAAAGUGGCUGUGGCUAGACUGCCUCUCUGGAUUCCUCGUCACUCAGCAGGGCAUCUCUGAGAGAAAUGCC [C56U G74A], the self-cleavage came to 0.09.

For the variant UACGUAGGUGGUUUUCCCCUGAUAGUGCUAAGGGGGCCUGGAAGUUUGGACUGGGUAGAGCUCAACACAGCGUGGCAAAGUGGCUGUGGCUAGACAGCCUCUCUGGAUUCCUCGUCACUCAGCAGGGCAUCUCUGAGAGAAAUGCC [C56U U96A], the self-cleavage is 0.03.

Consider UACGUAGGUGGUUUUCCCCUGAUAGUGCUAAGGGGGCCUGGAAGUUUGGACUGGGUAGAGCUCAACACAGCGCGGCAAAGUGGCUGUGGCUAGACUGCCUCUCUGGAUUCCUCGUCACUCAGCAGGGCAUCUCUGAGAGAAAUGCC [C56U U73C], for which the self-cleavage is 0.25.

Consider UACGUAGGUGGUUUUCCCCUGAUAGUGCUAAGGGGGCCUGGAAGUUUGGACUGGGUAGAGCUCAACACAGCGAGGCAAAGUGGCUGUGGCUAGACUGCCUCUCUGGAUUCCUCGUCACUCAGCAGGGCAUCUCUGAGAGAAAUGCC [C56U U73A], for which the self-cleavage came out at 0.08.

UACGUAGGUGGUUUUCCCCUGAUAGUGCUAAGGGGGCCUGGAAGUUUGGACUGGGCCGAGCUCAACACAGCGUGGCAAAGUGGCUGUGGCUAGGCUGCCUCUCUGGAUUCCUCGUCACUCAGCAGGGCAUCUCUGAGAGAAAUGCC [A57C A94G]: the self-cleavage was found to be 0.25.

In the case of UACGUAGGUGGUUUUCCCCUGAUAGUGCUAAGGGGGCCUGGAAGUUUGGACUGGGCCGAGCUCAACUCAGCGUGGCAAAGUGGCUGUGGCUAGACUGCCUCUCUGGAUUCCUCGUCACUCAGCAGGGCAUCUCUGAGAGAAAUGCC [A57C A67U], the self-cleavage was found to be 0.14.
